Each block holds one molecule with its values, some of them ahead of it.
Legend:
[1] = target: Isu1-GST fusion protein (S. cerevisiae) (UniProt Q03020); test: pull-down; Isu1-GST (30 μM) incubated with increasing Ssq1, 4 mM ADP, PD buffer (40 mM HEPES-KOH pH 7.5, 100 mM KCl, 1 mM DTT, 10 mM MgCl2, 5% glycerol), 15 min at 25 °C, then glutathione resin; SDS-PAGE, Coomassie, densitometry, Michaelis-Menten hyperbolic fit
[2] = target: T1, Ssq1 (S. cerevisiae); details: scale: fold
T1 sequence (Q05931 whole entry, looked up): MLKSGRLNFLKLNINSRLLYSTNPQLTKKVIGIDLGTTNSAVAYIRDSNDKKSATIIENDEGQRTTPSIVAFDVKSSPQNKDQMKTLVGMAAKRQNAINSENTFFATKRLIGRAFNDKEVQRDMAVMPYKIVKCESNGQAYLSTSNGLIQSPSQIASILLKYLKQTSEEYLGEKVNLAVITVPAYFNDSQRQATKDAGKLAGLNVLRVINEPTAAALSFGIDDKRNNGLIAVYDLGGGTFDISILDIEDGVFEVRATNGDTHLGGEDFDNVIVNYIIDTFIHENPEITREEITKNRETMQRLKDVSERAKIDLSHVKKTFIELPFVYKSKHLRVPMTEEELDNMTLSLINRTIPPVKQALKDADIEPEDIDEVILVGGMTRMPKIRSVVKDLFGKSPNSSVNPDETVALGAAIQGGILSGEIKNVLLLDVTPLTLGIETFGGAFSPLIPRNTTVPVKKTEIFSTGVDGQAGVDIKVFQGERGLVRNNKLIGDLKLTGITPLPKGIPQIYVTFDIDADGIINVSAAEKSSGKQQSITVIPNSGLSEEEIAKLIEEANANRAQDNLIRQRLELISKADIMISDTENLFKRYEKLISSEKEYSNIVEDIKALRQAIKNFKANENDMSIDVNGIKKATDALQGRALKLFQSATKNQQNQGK

[3] = target: T1, Ssq1 (S. cerevisiae)
[4] = substrate: Nc1ncnc2c1ncn2[C@@H]1O[C@H](COP(=O)(O)OP(=O)(O)OP(=O)(O)O)[C@@H](O)[C@H]1O; test: purified protein; details: 1 μM HscA, no exchange factor, no IscU or HscB mentioned, pH 7.5, 150 mM KCl, 20 mM Mg acetate, 23 °C
[5] = substrate: Nc1ncnc2c1ncn2[C@@H]1O[C@H](COP(=O)(O)OP(=O)(O)OP(=O)(O)O)[C@@H](O)[C@H]1O; test: steady-state ATPase, PK/LDH NADH-coupled assay; type: biochemical, Saccharomyces cerevisiae; details: 2.5 μM Ssq1 with 2.5 μM nucleotide exchange factor Mge1, no Isu1 or Hsc20 mentioned, pH 7.5, 150 mM KCl, 20 mM Mg acetate, 23 °C

Chain of Isu1-GST fusion protein (S. cerevisiae) (Q03020 28-165): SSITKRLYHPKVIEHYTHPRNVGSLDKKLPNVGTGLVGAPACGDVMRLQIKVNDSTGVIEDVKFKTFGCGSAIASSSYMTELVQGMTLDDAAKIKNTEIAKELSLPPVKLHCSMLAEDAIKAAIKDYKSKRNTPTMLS

Km (with ADP) [1]: 2.18 µM
Molecule: Ssq1 (natural protein)

apparent Km of Hsc20 (0.0025-0.25 μM) for stimulating the pull-down of Ssq1 with Isu1-GST in ATP, compared with that of HscB [2]: 4 | apparent Km of Hsc20 for stimulation of Ssq1 ATPase activity (radioactive assay, 10 μM Isu1, 0.5 μM Mge1), compared with that of HscB for HscA (fold (affinity, against HscA for HscB)) [3]: 8
B1: Hsc20 (natural protein)
chain: TSTFYELFPKTFPKKLPIWTIDQSRLRKEYRQLQAQHHPDMAQQGSEQSSTLNQAYHTLKDPLRRSQYMLKLLRNIDLTQEQTSNEVTTSDPQLLLKVLDIHDELSQMDDEAGVKLLEKQNKERIQDIEAQLGQCYNDKDYAAAVKLTVELKYWYNLAKAFKDWAPGKQLEMNH

B2: HscA (Escherichia coli K-12) (protein)
chain: MALLQISEPGLSAAPHQRRLAAGIDLGTTNSLVATVRSGQAETLADHEGRHLLPSVVHYQQQGHSVGYDARTNAALDTANTISSVKRLMGRSLADIQQRYPHLPYQFQASENGLPMIETAAGLLNPVRVSADILKALAARATEALAGELDGVVITVPAYFDDAQRQGTKDAARLAGLHVLRLLNEPTAAAIAYGLDSGQEGVIAVYDLGGGTFDISILRLSRGVFEVLATGGDSALGGDDFDHLLADYIREQAGIPDRSDNRVQRELLDAAIAAKIALSDADSVTVNVAGWQGEISREQFNELIAPLVKRTLLACRRALKDAGVEADEVLEVVMVGGSTRVPLVRERVGEFFGRPPLTSIDPDKVVAIGAAIQADILVGNKPDSEMLLLDVIPLSLGLETMGGLVEKVIPRNTTIPVARAQDFTTFKDGQTAMSIHVMQGERELVQDCRSLARFALRGIPALPAGGAHIRVTFQVDADGLLSVTAMEKSTGVEASIQVKPSYGLTDSEIASMIKDSMSYAEQDVKARMLAEQKVEAARVLESLHGALAADAALLSAAERQVIDDAAAHLSEVAQGDDVDAIEQAIKNVDKQTQDFAARRMDQSVRRALKGHSVDEV
Km [4]: 28 µM

B3: Ssq1 (Saccharomyces cerevisiae S288C) (protein)
chain: PQLTKKVIGIDLGTTNSAVAYIRDSNDKKSATIIENDEGQRTTPSIVAFDVKSSPQNKDQMKTLVGMAAKRQNAINSENTFFATKRLIGRAFNDKEVQRDMAVMPYKIVKCESNGQAYLSTSNGLIQSPSQIASILLKYLKQTSEEYLGEKVNLAVITVPAYFNDSQRQATKDAGKLAGLNVLRVINEPTAAALSFGIDDKRNNGLIAVYDLGGGTFDISILDIEDGVFEVRATNGDTHLGGEDFDNVIVNYIIDTFIHENPEITREEITKNRETMQRLKDVSERAKIDLSHVKKTFIELPFVYKSKHLRVPMTEEELDNMTLSLINRTIPPVKQALKDADIEPEDIDEVILVGGMTRMPKIRSVVKDLFGKSPNSSVNPDETVALGAAIQGGILSGEIKNVLLLDVTPLTLGIETFGGAFSPLIPRNTTVPVKKTEIFSTGVDGQAGVDIKVFQGERGLVRNNKLIGDLKLTGITPLPKGIPQIYVTFDIDADGIINVSAAEKSSGKQQSITVIPNSGLSEEEIAKLIEEANANRAQDNLIRQRLELISKADIMISDTENLFKRYEKLISSEKEYSNIVEDIKALRQAIKNFKANENDMSIDVNGIKKATDALQGRALKLFQSATKNQQNQGK
Km [5]: 25 µM

Source: article PMC7247549, “Biochemical Convergence of Mitochondrial Hsp70 System Specialized in Iron–Sulfur Cluster Biogenesis” (International Journal of Molecular Sciences, 2020)
